Consider one molecule from CN116813768A.

The test deals with 大熊猫TSHβ特异序列(TSHβ-1), synthetic peptide (大熊猫 (giant panda)). The test can be described thus: indirect ELISA, TSHβ-1 peptide coated at 2 μg/mL, serial dilutions of purified antibody, OD450.

B1: 大熊猫TSHβ单克隆抗体 (secreted by hybridoma cell line TSHB-A, CCTCC NO: C202282) (antibody, V domains shown)
VH: EVKLVESGGGLVKPGGSLKLSCAASGFIFRRYAMSWVRQTPEKRLEWVAAISSGGNIYYLDNVKGRFTISRDDARNILYLQMSSLRSEDTAMYYCARDDYDEDWYFDVWGAGTTVTVSS
VL: DVLMTQIPLSLPVSLGDQASISCRSSQSIVHSNGNTYLEWYLQKPGQSPNLLIYKVSNRFSGVPDRFSGSGSGTDFTLKISRVEAEDLGVYYCFQGSHLPPTFGGGTKLEIK
Consider B1, for which the 效价 (ELISA titer) (fold dilution) is > 1e+06.
